In patent US20250171562A1 (ALK ABELL, published 2025):

B1: CIgG4F5A1(G4S)1 (Fc fusion)
chain 1: GPPCPPCPAPEFLGGPSVFLFPPKPKDTLMISRTPEVTCVVVDVSQEDPEVQFNWYVDGVEVHNAKTKPREEQFNSTYRVVSVLTVLHQDWLNGKEYKCKVSNKGLPSSIEKTISKAKGQPREPQVYTLPPCQEEMTKNQVSLWCLVKGFYPSDIAVEWESNGQPENNYKTTPPVLDSDGSFFLYSRLTVDKSRWQEGNVFSCSVMHEALHNHYTQKSLSLSLGKGGGGSDVQLQESGGGLVQPGGSLRLSCAASGSIFSIDIMGWYRQAPGKQRELVATMPEGNYINYADSVKGRLTLSRDKGKNTVYLQLNSLKPEDTAVYYCYGFGVREGRGNVYWGQGTQVTVS
chain 2: GPPCPPCPAPEFLGGPSVFLFPPKPKDTLMISRTPEVTCVVVDVSQEDPEVQFNWYVDGVEVHNAKTKPREEQFNSTYRVVSVLTVLHQDWLNGKEYKCKVSNKGLPSSIEKTISKAKGQPREPQVCTLPPSQEEMTKNQVSLSCAVKGFYPSDIAVEWESNGQPENNYKTTPPVLDSDGSFFLVSRLTVDKSRWQEGNVFSCSVMHEALHNHYTQKSLSLSLGKGGGGSEVQLLESGGGLVQPGGSLRLSCAASGFTFGNYDMAWVRQAPGKRPEWVSSIDTGGDITHYADSVKGRFTISRDNAKNTLYLQMNSLRPEDTAVYWCATDEEYALGPNEFDYYGQGTLVTVSS
B2: CIgG4F6A1(G4S)1 (Fc fusion)
chain 1: GPPCPPCPAPEFLGGPSVFLFPPKPKDTLMISRTPEVTCVVVDVSQEDPEVQFNWYVDGVEVHNAKTKPREEQFNSTYRVVSVLTVLHQDWLNGKEYKCKVSNKGLPSSIEKTISKAKGQPREPQVYTLPPCQEEMTKNQVSLWCLVKGFYPSDIAVEWESNGQPENNYKTTPPVLDSDGSFFLYSRLTVDKSRWQEGNVFSCSVMHEALHNHYTQKSLSLSLGKGGGGSDVQLQESGGGLVQAGGSLRLSCAASGLTFGSYDMGWYRQAPGKQRELVGRIRNDGITYYADSVKGRFTMSRDNAKNTVYLQMNSLKPEDTAVYYCAADGTGLGHYDYWGQGTQVTVS
chain 2: B1 chain 2
B3: CIgG4F4A1(G4S)3 (Fc fusion)
chain 1: GPPCPPCPAPEFLGGPSVFLFPPKPKDTLMISRTPEVTCVVVDVSQEDPEVQFNWYVDGVEVHNAKTKPREEQFNSTYRVVSVLTVLHQDWLNGKEYKCKVSNKGLPSSIEKTISKAKGQPREPQVYTLPPCQEEMTKNQVSLWCLVKGFYPSDIAVEWESNGQPENNYKTTPPVLDSDGSFFLYSRLTVDKSRWQEGNVFSCSVMHEALHNHYTQKSLSLSLGKGGGGSGGGGSGGGGSDVQLQESGGGLVQAGGSLRLSCAVSGLSFSSMGWFRQPPGKEREFVAAISLYSGSTYYADSVKGRFTISSDNAKSTVYLQMNSLKPEDAAVYFCAADRQRTWSTFYASRQATYNYWGQGTQVTVTS
chain 2: GPPCPPCPAPEFLGGPSVFLFPPKPKDTLMISRTPEVTCVVVDVSQEDPEVQFNWYVDGVEVHNAKTKPREEQFNSTYRVVSVLTVLHQDWLNGKEYKCKVSNKGLPSSIEKTISKAKGQPREPQVCTLPPSQEEMTKNQVSLSCAVKGFYPSDIAVEWESNGQPENNYKTTPPVLDSDGSFFLVSRLTVDKSRWQEGNVFSCSVMHEALHNHYTQKSLSLSLGKGGGGSGGGGSGGGGSEVQLLESGGGLVQPGGSLRLSCAASGFTFGNYDMAWVRQAPGKRPEWVSSIDTGGDITHYADSVKGRFTISRDNAKNTLYLQMNSLRPEDTAVYWCATDEEYALGPNEFDYYGQGTLVTVSS
B4: CIgG4F5A1(G4S)3 (Fc fusion)
chain 1: GPPCPPCPAPEFLGGPSVFLFPPKPKDTLMISRTPEVTCVVVDVSQEDPEVQFNWYVDGVEVHNAKTKPREEQFNSTYRVVSVLTVLHQDWLNGKEYKCKVSNKGLPSSIEKTISKAKGQPREPQVYTLPPCQEEMTKNQVSLWCLVKGFYPSDIAVEWESNGQPENNYKTTPPVLDSDGSFFLYSRLTVDKSRWQEGNVFSCSVMHEALHNHYTQKSLSLSLGKGGGGSGGGGSGGGGSDVQLQESGGGLVQPGGSLRLSCAASGSIFSIDIMGWYRQAPGKQRELVATMPEGNYINYADSVKGRLTLSRDKGKNTVYLQLNSLKPEDTAVYYCYGFGVREGRGNVYWGQGTQVTVS
chain 2: B3 chain 2
B5: CIgG4F5A1(RS) (Fc fusion)
chain 1: GPPCPPCPAPEFLGGPSVFLFPPKPKDTLMISRTPEVTCVVVDVSQEDPEVQFNWYVDGVEVHNAKTKPREEQFNSTYRVVSVLTVLHQDWLNGKEYKCKVSNKGLPSSIEKTISKAKGQPREPQVYTLPPCQEEMTKNQVSLWCLVKGFYPSDIAVEWESNGQPENNYKTTPPVLDSDGSFFLYSRLTVDKSRWQEGNVFSCSVMHEALHNHYTQKSLSLSLGKRSDVQLQESGGGLVQPGGSLRLSCAASGSIFSIDIMGWYRQAPGKQRELVATMPEGNYINYADSVKGRLTLSRDKGKNTVYLQLNSLKPEDTAVYYCYGFGVREGRGNVYWGQGTQVTVS
chain 2: GPPCPPCPAPEFLGGPSVFLFPPKPKDTLMISRTPEVTCVVVDVSQEDPEVQFNWYVDGVEVHNAKTKPREEQFNSTYRVVSVLTVLHQDWLNGKEYKCKVSNKGLPSSIEKTISKAKGQPREPQVCTLPPSQEEMTKNQVSLSCAVKGFYPSDIAVEWESNGQPENNYKTTPPVLDSDGSFFLVSRLTVDKSRWQEGNVFSCSVMHEALHNHYTQKSLSLSLGKRSEVQLLESGGGLVQPGGSLRLSCAASGFTFGNYDMAWVRQAPGKRPEWVSSIDTGGDITHYADSVKGRFTISRDNAKNTLYLQMNSLRPEDTAVYWCATDEEYALGPNEFDYYGQGTLVTVSS
B6: CIgG4F6A1(RS) (Fc fusion)
chain 1: GPPCPPCPAPEFLGGPSVFLFPPKPKDTLMISRTPEVTCVVVDVSQEDPEVQFNWYVDGVEVHNAKTKPREEQFNSTYRVVSVLTVLHQDWLNGKEYKCKVSNKGLPSSIEKTISKAKGQPREPQVYTLPPCQEEMTKNQVSLWCLVKGFYPSDIAVEWESNGQPENNYKTTPPVLDSDGSFFLYSRLTVDKSRWQEGNVFSCSVMHEALHNHYTQKSLSLSLGKRSDVQLQESGGGLVQAGGSLRLSCAASGLTFGSYDMGWYRQAPGKQRELVGRIRNDGITYYADSVKGRFTMSRDNAKNTVYLQMNSLKPEDTAVYYCAADGTGLGHYDYWGQGTQVTVS
chain 2: B5 chain 2
B7: CIgG4F4A1(G4S)2 (Fc fusion)
chain 1: GPPCPPCPAPEFLGGPSVFLFPPKPKDTLMISRTPEVTCVVVDVSQEDPEVQFNWYVDGVEVHNAKTKPREEQFNSTYRVVSVLTVLHQDWLNGKEYKCKVSNKGLPSSIEKTISKAKGQPREPQVYTLPPCQEEMTKNQVSLWCLVKGFYPSDIAVEWESNGQPENNYKTTPPVLDSDGSFFLYSRLTVDKSRWQEGNVFSCSVMHEALHNHYTQKSLSLSLGKGGGGSGGGGSDVQLQESGGGLVQAGGSLRLSCAVSGLSFSSMGWFRQPPGKEREFVAAISLYSGSTYYADSVKGRFTISSDNAKSTVYLQMNSLKPEDAAVYFCAADRQRTWSTFYASRQATYNYWGQGTQVTVTS
chain 2: GPPCPPCPAPEFLGGPSVFLFPPKPKDTLMISRTPEVTCVVVDVSQEDPEVQFNWYVDGVEVHNAKTKPREEQFNSTYRVVSVLTVLHQDWLNGKEYKCKVSNKGLPSSIEKTISKAKGQPREPQVCTLPPSQEEMTKNQVSLSCAVKGFYPSDIAVEWESNGQPENNYKTTPPVLDSDGSFFLVSRLTVDKSRWQEGNVFSCSVMHEALHNHYTQKSLSLSLGKGGGGSGGGGSEVQLLESGGGLVQPGGSLRLSCAASGFTFGNYDMAWVRQAPGKRPEWVSSIDTGGDITHYADSVKGRFTISRDNAKNTLYLQMNSLRPEDTAVYWCATDEEYALGPNEFDYYGQGTLVTVSS
B8: CIgG4F5A1(G4S)2 (Fc fusion)
chain 1: GPPCPPCPAPEFLGGPSVFLFPPKPKDTLMISRTPEVTCVVVDVSQEDPEVQFNWYVDGVEVHNAKTKPREEQFNSTYRVVSVLTVLHQDWLNGKEYKCKVSNKGLPSSIEKTISKAKGQPREPQVYTLPPCQEEMTKNQVSLWCLVKGFYPSDIAVEWESNGQPENNYKTTPPVLDSDGSFFLYSRLTVDKSRWQEGNVFSCSVMHEALHNHYTQKSLSLSLGKGGGGSGGGGSDVQLQESGGGLVQPGGSLRLSCAASGSIFSIDIMGWYRQAPGKQRELVATMPEGNYINYADSVKGRLTLSRDKGKNTVYLQLNSLKPEDTAVYYCYGFGVREGRGNVYWGQGTQVTVS
chain 2: B7 chain 2

Biological target: T1, recombinant human IgE (human, UniProt P01854-1 1-428)
T1 construct: made in-house (ALK); preloaded on immobilised FcεRIα in the displacement ELISA
Test: IgE-FcεRIα displacement ELISA
In short: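 sdAbs at pM–μM were incubated 1 h on preformed complexes of 13 ng/ml recombinant human IgE with avi-tag-biotinylated human FcεRIα captured on streptavidin.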

T1 sequence (P01854 other isoform, or with tags, fused parts or gaps): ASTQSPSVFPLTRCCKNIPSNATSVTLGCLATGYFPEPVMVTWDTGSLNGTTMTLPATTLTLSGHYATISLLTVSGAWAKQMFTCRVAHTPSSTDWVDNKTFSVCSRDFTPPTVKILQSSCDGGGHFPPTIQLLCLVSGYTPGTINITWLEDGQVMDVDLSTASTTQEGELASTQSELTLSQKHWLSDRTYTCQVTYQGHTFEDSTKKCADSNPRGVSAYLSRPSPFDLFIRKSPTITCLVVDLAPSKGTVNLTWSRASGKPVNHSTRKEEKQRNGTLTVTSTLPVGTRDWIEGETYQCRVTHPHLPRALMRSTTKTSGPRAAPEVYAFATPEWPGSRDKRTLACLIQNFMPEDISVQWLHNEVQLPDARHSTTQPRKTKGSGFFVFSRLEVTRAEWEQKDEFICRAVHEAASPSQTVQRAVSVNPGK

Binder	Max effect	EC50
B1	30%	–
B2	25%	–
B3	90%	50 nM
B4	65%	400 nM
B5	15%	–
B6	20%	–
B7	90%	30 nM
B8	55%	580 nM
